Source: paper PMC3045100, “Cell-Penetrating Penta-Peptides (CPP5s): Measurement of Cell Entry and Protein-Transduction Activity” (Pharmaceuticals, 2010)

Tested on: Tex-loxP-EG cells
Assay: Protein transduction: delivery of Cre recombinase read out by GFP expression
Type: cell-based, mouse
Conditions: 5 or 10 µM protein, 3 h, GFP measured 48 h after, FACS, three independent experiments
Protocol: To determine the protein-transduction activity of VPTLK and KLPVM, these peptides were added to the N-terminus of Cre DNA recombinase and the resulting CPP5-Cre fusion proteins were added separately to the culture medium of Tex-loxP-EG cells, which are engineered to express GFP through Cre-dependent excision of a chromosomal lox P site. This method was developed by S. Dowdy’s group to determine the protein-transduction activity of TAT peptide.
First, cells were cultured for 3 h in serum-free medium in the presence of 5 or 10 µM Cre, TAT-Cre, KLPVM-Cre, or VPTLK-Cre. GFP expression was measured 48 h after the incubation with the CPP-Cre proteins. […]
Figure 5 Protein-Transduction activity (PTDs) of VPTLK and KLPVM determined by the delivery of Cre recombinase into cells. a. […] The delivery of Cre into Tex-lox P-EG cells was evaluated by GFP expression as previously reported. GFP expression was analyzed 48 h after the incubation of cells with Cre proteins. b and c. […] Mean GFP fluorescence intensity of Tex-loxP-EG cells incubated with 5 or 10 μM Cre recombinant proteins under serum-free conditions. […]
Tex lox P EG cells were established from thymoma cells of p53-deficient mice, which were genetically engineered to have a lox P site flanking the EGFP gene. […] Expression of GFP was analyzed by fluorescence microscopy and by FACS [11].

B1: Cre: His-tagged recombinant Cre DNA recombinase without TAT or CPP5s (protein, UniProt P06956 1-343, looked up)
Recombinase cre: MSNLLTVHQNLPALPVDATSDEVRKNLMDMFRDRQAFSEHTWKMLLSVCRSWAAWCKLNNRKWFPAEPEDVRDYLLYLQARGLAVKTIQQHLGQLNMLHRRSGLPRPSDSNAVSLVMRRIRKENVDAGERAKQALAFERTDFDQVRSLMENSDRCQDIRNLAFLGIAYNTLLRIAEIARIRVKDISRTDGGRMLIHIGRTKTLVSTAGVEKALSLGVTKLVERWISVSGVADDPNNYLFCRVRKNGVAAPSATSQLSTRALEGIFEATHRLIYGAKDDSGQRYLAWSGHSARVGAARDMARAGVSIPEIMQAGGWTNVNIVMNYIRNLDSETGAMVRLLEDGD
modifications: His tag
notes: His-tagged recombinant Cre DNA recombinase without TAT or CPP5s
  GFP expression induced by Cre protein, serum-free medium: did not
